Measured values: the supplement of paper PMC9170038

Tested on: MS2 coat protein
Test: apparent KD of MS2 coat protein; designed switch direction (-1 OFF switch, 1 ON switch): -1; higher = weaker reporter binding
In short: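 The reported apparent KD is a per-design median over clusters, from curve fits of normalised cluster fluorescence. Protein titrations used SNAP-549-labelled MS2 coat protein, doubled from 0.7 or 1.5 nM to 3 µM, in Tris-HCl pH 7.5 buffer with KCl, MgCl2, BSA, DTT, tRNA and Tween-20, with no input, 200 uM small-molecule ligand, or an oligonucleotide input. The RNA switches were transcribed on Illumina chips by stalled E. coli RNA polymerase.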

[1] = Eterna round: R95, input ligand: microRNA oligo, concentration not stated
[2] = input ligand: microRNA oligo, concentration not stated
[3] = Eterna round: R95, input ligand: FMN 200 uM
[4] = Eterna round: R95, input ligand: none

GGACAUAAAGUCAGGAUAUUAAUGCGAACAAGCGAUGAGAAGGGACAUGAGGAUCACCCAUGUGAUUCUCAUCA [Edvebe] (Eterna round: R97, puzzle: Brourd's mod of Exclusion 4)
apparent KD of MS2 coat protein (input ligand: FMN 200 uM): 17.6 nM | apparent KD of MS2 coat protein (input ligand: none): 16.5 nM

AAGGAUAGAGGAUAUACAUAGAUACAGAUUCAUGUGGUCCUACAUGAGGAUCACCCAUGUAGAAGGCUAUCCUA [Fiskers Ex 2 - 14] (puzzle: Exclusion 2)
apparent KD of MS2 coat protein [1]: 169 nM

UAUCAUGUAGGAUAUACGUAGCUAUGACCCUCGAGAACUAUACAUGAGGAUCACCCAUGUAGAAGGGCGACUUU [Eternabot (L1) Solution 34] (Eterna round: R97, puzzle: Exclusion 2)
apparent KD of MS2 coat protein (input ligand: FMN 200 uM): 21.3 nM | apparent KD of MS2 coat protein (input ligand: none): 17.2 nM

AAUCCACAUGAGGAUCACCCAUGUGAGGAUAUGAUACUAUGUACUUCGGUACAUAGUAUCAGAAGGCAUAUGAA [Ex1-3: 49] (puzzle: Exclusion 1)
apparent KD of MS2 coat protein [1]: 26.9 nM

UUAGUGUAAGGAUAUCCUAUUACGAAGUAGCAACGGUAGAGGGAGAAGGUACAUGAGGAUCACCCAUGUGUCGC [Eternabot (L2) Solution 38] (Eterna round: R97, puzzle: Exclusion 4)
apparent KD of MS2 coat protein (input ligand: FMN 200 uM): 26.3 nM | apparent KD of MS2 coat protein (input ligand: none): 24.5 nM

GCGUGGCGUAAGGAUAUCCAUACGGUAUAACCGGGAGAAGGUACGACAUGAGGAUCACCCAUGUGGCCUGGAAA [Sorimaat] (Eterna round: R97, puzzle: Exclusion 6)
apparent KD of MS2 coat protein (input ligand: FMN 200 uM): 64.4 nM | apparent KD of MS2 coat protein (input ligand: none): 22.2 nM

UGAAUAAUAGUAAGGAUAUCAGCCGCGAAAGUGGCUGAGAAGGUACAUGAGGAUCACCCAUGUGAAAUAAGAAU [Mod of Zala 19 - Jieux - Brourd's Mod of Exclusion 4] (Eterna round: R97, puzzle: Brourd's mod of Exclusion 4)
apparent KD of MS2 coat protein (input ligand: FMN 200 uM): 27.1 nM | apparent KD of MS2 coat protein (input ligand: none): 19.8 nM

UUUUUAUAUGAAGGAUAUACUUAACAUGAGGAUCACCCAUGUGGUGUUGUGAGUGAGUGAGUUUAGUAGAAGGUCAAUUAGUGU [JMF's solution 102] (Eterna round: R96, puzzle: Exclusion NG 2)
apparent KD of MS2 coat protein (input ligand: FMN 200 uM): 998 nM | apparent KD of MS2 coat protein [2]: 314 nM | apparent KD of MS2 coat protein (input ligand: none): 476 nM

CCAAGCUACUUCAUUAUCCACAUGAGGAUCACCCAUGUCUUGGCAAUUAUGACCUGCCCGUCAGGAGCUCGUCUUAU [Sensor-V1 #39] (Eterna round: R97, puzzle: Sensor, turn-off variant 1)
apparent KD of MS2 coat protein (input ligand: FMN 200 uM): 113 nM | apparent KD of MS2 coat protein (input ligand: none): 55.2 nM

AAAAGAAGUGUUAGGAUAUGUGGAAGUAGAAAGACACAGAAGGGACAUGAGGAUCACCCAUGUGGCCAAAGAAC [Vecedies] (puzzle: Brourd's mod of Exclusion 4)
apparent KD of MS2 coat protein [3]: 17.3 nM | apparent KD of MS2 coat protein [1]: 15.6 nM | apparent KD of MS2 coat protein [4]: 15.5 nM

AUCGUGGCUCAGGAUAUCAGCCCUGUGGAGUUCUGAGAAGGGAGCACAUGAGGAUCACCCAUGUGAAAGGGUAC [Esdienar] (puzzle: Exclusion 6)
apparent KD of MS2 coat protein [3]: 148 nM | apparent KD of MS2 coat protein [1]: 45.6 nM | apparent KD of MS2 coat protein [4]: 40.8 nM

UGCCAGAAAGGAUAUACAUGAGGAUCACCCAUGUAACCCUAUGUGAGAGUUCCCGUUUGUAGAAGGUUCUCGUA [EX3 C.22] (Eterna round: R97, puzzle: Exclusion 3)
apparent KD of MS2 coat protein (input ligand: FMN 200 uM): 21.3 nM | apparent KD of MS2 coat protein (input ligand: none): 18.2 nM

GGUUGGCGAGGAUAUACAUGAGGAUCACCCAUGUGAGAGAAAGAAGUGAGGAAGAAUAGUAGAAGGCGCUGACG [salish99_ex3_r3_056] (puzzle: Exclusion 3)
apparent KD of MS2 coat protein [3]: 746 nM | apparent KD of MS2 coat protein [1]: 56.1 nM | apparent KD of MS2 coat protein [4]: 69.1 nM

UAGAAGGUAGGAUAUACGAAUAAAUAGGGUAGUAAGAAGACACAUGAGGAUCACCCAUGUAGAAGGACCAAGAU [Mat - Exclusion 2 - Mod of my Tesla design - D33] (puzzle: Exclusion 2)
apparent KD of MS2 coat protein [3]: 33.5 nM | apparent KD of MS2 coat protein [1]: 19.4 nM | apparent KD of MS2 coat protein [4]: 20.6 nM

CAGAAUUGAGGAUAUGAUCAAUUUAACAUGAGGAUCACCCAUGUAUGGGAAUGAUUCUGAUCAGAAGGCGAUUCUU [Exclusion 5: 1:a] (Eterna round: R96, puzzle: Exclusion 5)
apparent KD of MS2 coat protein (input ligand: FMN 200 uM): 960 nM | apparent KD of MS2 coat protein [2]: 511 nM | apparent KD of MS2 coat protein (input ligand: none): 633 nM

ACAUGAGGAUCACCCAUGUCUGGCUGGUCCGUCUCGGCUGUCGAGGAUAUAGCUCGGUGUCCGCGCUAGAAGGCGGGAGCUGGC [Aenatbe mod 81] (Eterna round: R96, puzzle: Exclusion NG 3)
apparent KD of MS2 coat protein (input ligand: FMN 200 uM): 135 nM | apparent KD of MS2 coat protein [2]: 52.2 nM | apparent KD of MS2 coat protein (input ligand: none): 81 nM

UCAAGCUUUAAGCGUGUGAACAUGAGGAUCACCCAUGUAUUUUUGGUUAGGAGUUCUGUAAGGGAUGCUCGUCUUAU [JR_SWV3TOV1_Sub093] (puzzle: Sensor v3, turn-off variant 1)
apparent KD of MS2 coat protein [3]: 37.4 nM | apparent KD of MS2 coat protein [1]: 47.5 nM | apparent KD of MS2 coat protein [4]: 50.7 nM

AAUUUACAUGAGGAUCACCCAUGUGAGGAUAUAUGUUUAAAUUUUUUUUUUUUUUUUCAUAGAAGGCGCGUGAU [JR_Exc1_Sub048] (Eterna round: R97, puzzle: Exclusion 1)
apparent KD of MS2 coat protein (input ligand: FMN 200 uM): 17.3 nM | apparent KD of MS2 coat protein (input ligand: none): 31.6 nM

CAUGGUUAACGAUUAUUCAACAUGAGGAUCACCCAUGUCUCUUUUUCUUUUUGCUCGUCUUAUCCUCCUUUGUUCAC [JR_STOV1_v2_Sub0102] (Eterna round: R97, puzzle: Sensor, turn-off variant 1)
apparent KD of MS2 coat protein (input ligand: FMN 200 uM): 379 nM | apparent KD of MS2 coat protein (input ligand: none): 412 nM

UAUUAGCAAGCGAGAUCCUACAUGAGGAUCACCCAUGUGCUCGUCUUAUAAGGUACUGUGACGAAAGUCACGGUACC [Eli 91 v36] (Eterna round: R97, puzzle: Sensor, turn-off variant 1)
apparent KD of MS2 coat protein (input ligand: FMN 200 uM): 18.2 nM | apparent KD of MS2 coat protein (input ligand: none): 27.5 nM

UUUUAGAGAGGAUAUAUAAAGUGAAACAUGAGGAUCACCCAUGUAAUUUUAUGGAUGUAAAUAGAAGGCUCAUUUA [JL-ex5-3.01] (puzzle: Exclusion 5)
apparent KD of MS2 coat protein [1]: 34.3 nM

CUGUACUGAGGAUAUACAUGAGGAUCACCCAUGUUCUUCAGCUAGGAAACUAGCAAAGGUAGAAGGCAGUACAG [Mat - Exclusion 3 - Eli Mod - D69] (Eterna round: R97, puzzle: Exclusion 3)
apparent KD of MS2 coat protein (input ligand: FMN 200 uM): 784 nM | apparent KD of MS2 coat protein (input ligand: none): 34.3 nM

GAUACACAUGAGGAUCACCCAUGUGAGGAUAUGCGUACGUUGUCCGUAGGCGACGUGCGCAGAAGGCGCAAGGU [Mat - Mod of JL D96] (puzzle: Exclusion 1)
apparent KD of MS2 coat protein [1]: 55 nM

CGCCUACAUGAGGAUCACCCAUGUGAGGAUAUCCUGCGAGGAUCAAAAGAUCCUCGUGGGAGAAGGCGCUUGGA [Omei Ex1 B7] (Eterna round: R97, puzzle: Exclusion 1)
apparent KD of MS2 coat protein (input ligand: FMN 200 uM): 18.7 nM | apparent KD of MS2 coat protein (input ligand: none): 19.4 nM

AUGUUGUCAGGAUAUCUUACAUAACAAUCGUUGUUACCAUUGGAGAAGGGACAUGAGGAUCACCCAUGUUAACC [tap-tap-tappy45] (Eterna round: R97, puzzle: Exclusion 4)
apparent KD of MS2 coat protein (input ligand: FMN 200 uM): 23.9 nM | apparent KD of MS2 coat protein (input ligand: none): 21.5 nM

UAUAAUUUUUUUUUUUUACAAGCUUUUUGCUCGUCUUAUACAUGAGGAUCACCCAUGUGGGUGAAAGAUAGAUUGUC [JMF's solution 2] (puzzle: Sensor v3, turn-off variant 2)
apparent KD of MS2 coat protein [3]: 37.7 nM | apparent KD of MS2 coat protein [1]: 15.5 nM | apparent KD of MS2 coat protein [4]: 41.2 nM
